# Test results as given in PMC2752461, “Involvement of S-adenosylmethionine-dependent halide/thiol methyltransferase (HTMT) in methyl halide emissions from agricultural plants: isolation and characterization of an HTMT-coding gene from Raphanus sativus (daikon radish)” (BMC Plant Biology, 2009).
# B1: recombinant RsHTMT (Raphanus sativus) (protein)
# chain: MAEGQQNSGNSNGENIIPPEDVAKFLPKTVEEGGWEKCWEDGVTPWDQGRATPLVVHLVESSSLPLGRALVPGCGGGHDVVAMASPERYVVGLDISESALEKAAETYASSPKAKYFTFVKEDFFTWRPSELFDLIFDYVVFCAIEPEMRAAWAKTMYELLKPDGELITLMYPITDHDGGPPYKVAVSTYEDVLVPVGFKAVSIEENPYSIATRKGKEKLGRWKKIN
# notes: sense primer encodes MAEGQQ), His-tagged fusion in pET-21b, E. coli BL21(DE3), Ni-Sepharose, tag kept
# Experiments:
# [1] = substrate: C[S+](CC[C@H](N)C(=O)O)C[C@H]1O[C@@H](n2cnc3c(N)ncnc32)[C@H](O)[C@@H]1O; assay: purified protein; conditions: 20 mM iodide constant, 20 mM MES pH 7.0, 30 °C
# [2] = substrate: I; assay: GC-MS headspace assay of methylated product; assay type: biochemical, Raphanus sativus; conditions: 500 μM SAM constant, 20 mM MES pH 7.0, 30 °C
# Description: (§1) GC-MS headspace assay of methylated product on recombinant RsHTMT
# [3] = substrate: S; assay: GC-MS headspace assay of methylated product; assay type: biochemical, Raphanus sativus; conditions: 500 μM SAM constant, supplied as NaSH, 20 mM MES pH 7.0, 30 °C
# Description: as §1
# [4] = substrate: N#CS; assay: GC-FID of CH3SCN formation; assay type: biochemical, Raphanus sativus; conditions: 500 μM SAM constant, KSCN, 20 mM MES pH 7.0, 30 °C
# Description: GC-FID of CH3SCN formation on recombinant RsHTMT
protein,measurement,setting,value
B1,Km,[1],0.19 mM
same,Km,[2],4.47 mM
same,Vmax,[2],0.139 µmol/min/mg
same,Km,[3],12.24 mM
same,Vmax,[3],0.159 µmol/min/mg
same,Km,[4],0.04 mM
same,Vmax,[4],0.185 µmol/min/mg
